Experimental data published in US20180066067A1 (Novartis, published 2018).

B3: RSPO1-GFP (ligand, UniProt Q2MKA7 21-263, looked up)
chain: SRGIKGKRQRRISAEGSQACAKGCELCSEVNGCLKCSPKLFILLERNDIRQVGVCLPSCPPGYFDARNPDMNKCIKCKIEHCEACFSHNFCTKCKEGLYLHKGRCYPACPEGSSAANGTMECSSPAQCEMSEWSPWGPCSKKQQLCGFRRGSEERTRRVLHAPVGDHAACSDTKETRRCTVRRVPCPEGQKRRKGGQGRRENANRNLARKESKEAGAGSRRRKGQQQQQQQGTVGPLTSAGPA
notes: Used as conditioned medium; The order of the parts follows the printed name; also called R-spondin 1 GFP fusion; R-spondin; not shown: GFP

Legend:
[1] = target: T1, ZNRF3 ΔRING (missing amino acids 293-334), stably expressed on HEK293 cells (human, UniProt Q9ULT6 56-936); experiment: FACS on HEK293 cells stably expressing ZNRF3 ΔRING
T1 construct: No tag is stated for the cell line used in FACS; also called ZNRF3 lacking the RING domain
T1 sequence: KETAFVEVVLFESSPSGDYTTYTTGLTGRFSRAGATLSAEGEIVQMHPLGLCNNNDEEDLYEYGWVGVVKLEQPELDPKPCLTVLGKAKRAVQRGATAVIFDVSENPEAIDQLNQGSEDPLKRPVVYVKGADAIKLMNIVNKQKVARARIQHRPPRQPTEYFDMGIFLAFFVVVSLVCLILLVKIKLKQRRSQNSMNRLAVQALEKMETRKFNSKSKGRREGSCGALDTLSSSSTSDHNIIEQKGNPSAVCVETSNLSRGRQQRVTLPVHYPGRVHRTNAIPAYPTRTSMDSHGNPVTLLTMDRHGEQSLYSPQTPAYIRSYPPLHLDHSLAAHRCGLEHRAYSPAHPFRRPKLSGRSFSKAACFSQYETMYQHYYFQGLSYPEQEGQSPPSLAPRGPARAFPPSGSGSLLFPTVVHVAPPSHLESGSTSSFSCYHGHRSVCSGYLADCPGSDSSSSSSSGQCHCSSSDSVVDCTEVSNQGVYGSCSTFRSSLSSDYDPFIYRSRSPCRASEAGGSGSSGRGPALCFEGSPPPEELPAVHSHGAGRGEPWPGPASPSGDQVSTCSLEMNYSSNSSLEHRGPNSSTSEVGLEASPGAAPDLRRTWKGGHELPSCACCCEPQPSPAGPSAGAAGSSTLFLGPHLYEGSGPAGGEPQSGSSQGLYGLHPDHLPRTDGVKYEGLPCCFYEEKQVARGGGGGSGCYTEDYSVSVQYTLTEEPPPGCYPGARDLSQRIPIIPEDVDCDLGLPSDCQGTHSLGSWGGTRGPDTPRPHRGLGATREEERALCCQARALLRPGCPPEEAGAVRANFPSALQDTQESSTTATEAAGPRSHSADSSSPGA

[2] = target: T2, Fc-ZNRF3 ECD (extracellular domain, amino acids 56-219 of SEQ ID NO: 1) (human, UniProt Q9ULT6 56-219); experiment: ELISA on Fc-ZNRF3 ECD
T2 construct: The order of the parts follows the printed name 'Fc-ZNRF3 ECD'; also called purified ZNRF3 extracellular domain; not shown: Fc part
T2 sequence: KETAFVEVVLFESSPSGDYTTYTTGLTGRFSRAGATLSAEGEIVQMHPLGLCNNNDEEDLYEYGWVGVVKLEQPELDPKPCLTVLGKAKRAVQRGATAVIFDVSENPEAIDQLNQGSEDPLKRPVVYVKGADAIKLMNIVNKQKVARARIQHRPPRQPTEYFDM

[3] = target: T3, N-terminal Myc-tagged FZD4 (Frizzled 4) (UniProt Q9ULV1 37-537, limits assumed); experiment: cell-based binding assay: RSPO1-GFP conditioned medium for 1 hour on transfected HEK293 cells, immunofluorescence
T3 construct: whole, on cells; On transiently transfected HEK293 cells; not shown: N-terminal Myc tag
T3 sequence (looked up): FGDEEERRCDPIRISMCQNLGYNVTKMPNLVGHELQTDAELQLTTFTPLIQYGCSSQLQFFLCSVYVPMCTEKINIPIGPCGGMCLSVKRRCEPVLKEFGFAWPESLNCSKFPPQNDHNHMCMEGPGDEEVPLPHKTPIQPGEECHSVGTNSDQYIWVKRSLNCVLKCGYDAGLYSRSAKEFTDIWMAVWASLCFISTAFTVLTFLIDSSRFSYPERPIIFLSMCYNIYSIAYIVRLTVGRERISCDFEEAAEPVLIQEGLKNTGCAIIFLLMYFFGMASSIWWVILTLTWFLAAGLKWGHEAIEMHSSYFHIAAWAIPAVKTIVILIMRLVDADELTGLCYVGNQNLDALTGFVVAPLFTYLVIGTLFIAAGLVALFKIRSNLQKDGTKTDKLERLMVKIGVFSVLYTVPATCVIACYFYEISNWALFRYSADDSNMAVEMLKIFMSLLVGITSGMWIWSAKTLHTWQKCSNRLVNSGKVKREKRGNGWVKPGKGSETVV
Procedure: (§1) Since ZNRF3 regulates the membrane level of Frizzled proteins, we tested whether R-spondin enhances Wnt signaling through inhibiting ZNRF3. […] To do so, the inventors transiently transfected HEK293 cells with N-terminal Myc-tagged FZD4 (Frizzled 4), or ZNRF3 ECD-TM, or ZNRF3 P103A ECD-TM, then incubated these cells with RSPO1-GFP conditioned medium for 1 hour. We determined the binding of RSPO1-GFP to Myc tagged proteins expressed on the cell surface using immunoflurorescence using anti-GFP and anti-Myc antibodies.

RSPO1-GFP = target: B3; experiment: as above
Procedure: as §1

B1: Fab clone Ab2 (Fab, V domains shown)
VH: EVQLVESGGGLVKPGGSLRLSCAASGFTFSDYGIHWVRQAPGKGLEWVGRIKSKTDGGITEYAAPVKGRFTISRDDSKNTLYLQMNSLKTEDTAVYYCARAIYYLEAFDVWGQGTLVTVSS
VL: DIELTQPPSVSVSPGQTASITCSGDSLGSYYVHWYQQKPGQAPVLVIYRNKQRPSGIPERFSGSNSGNTATLTISGTQAEDEADYYCQTYDWMYSSRVFGGGTKLTVLG
notes: also called parental Ab2; ZNRF3 hFab
- binding result [1]: binds
- binding result [2]: binds

B2: Fab clone Ab1 (Fab, V domains shown)
VH: QVQLVQSGAEVKKPGASVKVSCKASGYTFTSYHMHWVRQAPGQGLEWMGWINPYTGDTNYAQKFQGRVTMTRDTSISTAYMELSRLRSEDTAVYYCAREKVYMDIWGQGTLVTVSS
VL: DIELTQPPSVSVSPGQTASITCSGDSIPSKYAHWYQQKPGQAPVLVIYGKSHRPSGIPERFSGSNSGNTATLTISGTQAEDEADYYCAAWDLLGDGWVFGGGTKLTVLG
notes: Fab from phage display panning on Fc-ZNRF3 ECD; Light chain Lch-lambda3, heavy chain Hch-VH1B; the heavy chain entry carries C-terminal tags; also called ZNRF3 hFab
- binding result [1]: binds
- binding result [2]: binds

Binder: B3
- binding result [3]: no binding

B4: ZNRF3 P103A ECD-TM (receptor, not shown: small tags and cut ends)
chain: KETAFVEVVLFESSPSGDYTTYTTGLTGRFSRAGATLSAEGEIVQMHALGLCNNNDEEDLYEYGWVGVVKLEQPELDPKPCLTVLGKAKRAVQRGATAVIFDVSENPEAIDQLNQGSEDPLKRPVVYVKGADAIKLMNIVNKQKVARARIQHRPPRQPTEYFDMGIFLAFFVVVSLVCLILLVKIKLKQRRSQNSMNRLAV
notes: On transiently transfected HEK293 cells, N-terminally Myc-tagged
- binding result (RSPO1-GFP): no binding
